Measured values as given in patent US20230110188A1 (ARGENX IIP, published 2023).

Legend:
[1] = biological target: T1, Human MuSK (R&D Systems, cat. 10189-MK, histidine tag) (human, UniProt O15146 24-495); assay: SPR (Biacore), MuSK-coated chip, antibody alone (run of first antibody 3D9b)
T1 construct: Bought protein; also called human monomeric MuSK-6xhis; not shown: histidine tag (6xhis)
T1 sequence: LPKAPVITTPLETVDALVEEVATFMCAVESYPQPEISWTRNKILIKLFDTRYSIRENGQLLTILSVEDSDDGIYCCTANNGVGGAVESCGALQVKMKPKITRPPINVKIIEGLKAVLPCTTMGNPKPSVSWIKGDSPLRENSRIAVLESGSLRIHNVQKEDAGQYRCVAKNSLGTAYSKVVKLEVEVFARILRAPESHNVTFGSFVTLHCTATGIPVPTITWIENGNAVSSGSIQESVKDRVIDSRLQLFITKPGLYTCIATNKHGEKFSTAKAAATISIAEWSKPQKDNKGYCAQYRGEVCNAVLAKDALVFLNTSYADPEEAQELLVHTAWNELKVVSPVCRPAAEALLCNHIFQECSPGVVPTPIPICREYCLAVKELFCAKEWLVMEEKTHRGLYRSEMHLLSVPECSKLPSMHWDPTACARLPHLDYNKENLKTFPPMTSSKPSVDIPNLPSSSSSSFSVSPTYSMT
Experimental: (§1) A chip was coated with ˜5000 RU of human MuSK (Lot nr DHUCO 11908A, batch nr 1089_MK). In a first experiment the saturating concentration of the pre-leads was determined. This is the concentration where the amplitude of a specific pre-lead doesn't increase anymore when additional pre-lead is injected on the immobilized MuSK.

[2] = biological target: T2, human monomeric MuSK FLAG streptavidin (in house produced, batch 27-6-2019) (human, UniProt O15146 24-495); assay: epitope binning ELISA (coated anti-MuSK Fab, MuSK, IgG, anti-Fc HRP); competitor: 3B5wt
T2 construct: also called full length MuSK; not shown: FLAG and streptavidin tags
T2 sequence: T1 sequence
Experimental: (§2) For epitope binning—An ELISA plate was coated at 1 μg/ml of the anti-MuSK Fabs and incubated overnight at 4° C. Next, the plate was wash with PBS followed by blocking with 1% casein in PBS for one hour. After washing the plate, 1 μg/ml of human monomeric MuSK (in house produced, batch 27-6-2019) was incubated for one hour at RT. The plate was washed and anti-MuSK antibodies at 0.3-10 μg/ml were added to the plate and incubated for one hour at RT. After washing the plate, detection antibody (goat anti-human Fc HRP (Jackson Immunoresearch cat. 109-035-098)) was added at 5000 fold dilution in PBS 0.1% casein. The plate was incubated for one hour at RT and washed with PBS-T. TMB was added and the reaction was stopped by adding H2504. […]
(§3) For the epitope binning ELISA, a plate was coated with anti-MuSK Fab and human monomeric MuSK was added after blocking the plate. Next the different antibodies were added and allowed to bind.

[3] = biological target: T1, Human MuSK (R&D Systems, cat. 10189-MK, …); assay: SPR (Biacore), MuSK-coated chip presaturated with 500 nM 3D9b (competitor)
Experimental: as §1

[4] = biological target: T1, Human MuSK (R&D Systems, cat. 10189-MK, …); assay: SPR (Biacore), MuSK-coated chip, antibody alone (run of first antibody 3D10a)
Experimental: as §1

[5] = biological target: T1, Human MuSK (R&D Systems, cat. 10189-MK, …); assay: SPR (Biacore), MuSK-coated chip presaturated with 3F6c
[6] = biological target: T1, Human MuSK (R&D Systems, cat. 10189-MK, …); assay: SPR (Biacore), MuSK-coated chip presaturated with 500 nM 3F6c (competitor)
Experimental: as §1

[7] = biological target: T2, human monomeric MuSK FLAG streptavidin …; assay: epitope binning ELISA (coated anti-MuSK Fab, MuSK, IgG, anti-Fc HRP); competitor: 3D10a
Experimental: as §2, §3

[8] = biological target: T1, Human MuSK (R&D Systems, cat. 10189-MK, …); assay: SPR (Biacore), MuSK-coated chip presaturated with 500 nM 3D10a (competitor)
Experimental: as §1

[9] = biological target: T2, human monomeric MuSK FLAG streptavidin …; assay: epitope binning ELISA (coated anti-MuSK Fab, MuSK, IgG, anti-Fc HRP); competitor: 4D3
Experimental: as §2, §3

[10] = biological target: T2, human monomeric MuSK FLAG streptavidin …; assay: epitope binning ELISA (coated anti-MuSK Fab, MuSK, IgG, anti-Fc HRP); competitor: 3F6c
Experimental: as §2, §3

[11] = biological target: T1, Human MuSK (R&D Systems, cat. 10189-MK, …); assay: SPR (Biacore), MuSK-coated chip presaturated with 500 nM 4D3 (competitor)
Experimental: as §1

[12] = biological target: T1, Human MuSK (R&D Systems, cat. 10189-MK, …); assay: SPR (Biacore), MuSK-coated chip, antibody alone (run of first antibody 4D3)
Experimental: as §1

[13] = biological target: T1, Human MuSK (R&D Systems, cat. 10189-MK, …); assay: SPR (Biacore), MuSK-coated chip, antibody alone (run of first antibody 3F6c)
Experimental: as §1

[14] = biological target: T2, human monomeric MuSK FLAG streptavidin …; assay: epitope binning ELISA (coated anti-MuSK Fab, MuSK, IgG, anti-Fc HRP); competitor: 3D9b
Experimental: as §2, §3

B1: 3B5 (antibody, V domains shown)
VH: QVQLVQSGAVVAKPGASVQVSCKTSGYTFTGQYLHWVRQAPGQGLEWIGWINPSSGVTKFAEKFEGRATMTRDTSITTAYIDLRSLRSDDTATYYCATLSLGVYYVGMVAWGQGTLVTVSS
VL: ELTQPPSVSVSPGQTATITCSGDGLAQQHVYWFQQRPGQAPLLIIYKDIERPSGIPERFSGSSSGTTAMLTISGVQAEDEADYYCQSGDRTATSVLFGGGTKMTVLG
notes: also called 3B5wt
amplitude of prelead without presaturating MuSK (RU) [1]: 399 RU | OD 450 nm [2]: 0.048 OD | amplitude of prelead after presaturating MuSK (RU) [3]: 2150 RU | extra amplitude (%) [3]: 539% | normalized extra amplitude (%) [3]: 538% | amplitude of prelead without presaturating MuSK (RU) [4]: 658 RU | fold of binding signal against amplitude on non-saturated MuSK [5]: ≥ 3 fold | amplitude of prelead after presaturating MuSK (RU) [6]: 2230 RU | extra amplitude (%) [6]: 397% | normalized extra amplitude (%) [6]: 395% | OD 450 nm [7]: 1.88 OD | amplitude of prelead after presaturating MuSK (RU) [8]: 2260 RU | extra amplitude (%) [8]: 344% | normalized extra amplitude (%) [8]: 342% | OD 450 nm [9]: 1.96 OD | OD 450 nm [10]: 2.03 OD | amplitude of prelead after presaturating MuSK (RU) [11]: 141 RU | extra amplitude (%) [11]: 93% | normalized extra amplitude (%) [11]: 88.1% | amplitude of prelead without presaturating MuSK (RU) [12]: 151 RU | amplitude of prelead without presaturating MuSK (RU) [13]: 562 RU | OD 450 nm [14]: 1.99 OD
